This passage reports fold lower binding than the P. goldsteinii epitope results from article doi:10.1101/2020.08.05.236513.

The test addresses H-2 I-A^b class II MHC molecule (mouse (endogenous in LB27.4)). The experiment in a line: radioligand binding.

With Ac-KWDYRESRVWVNDQ-NH2 [14-mer N-acetylated P. merdae β-hex peptide], the fold lower binding than the P. goldsteinii epitope came out at 3 fold.
